Assay results taken from IntAct's records for PubMed 16642037.

B1: RAC-alpha serine/threonine-protein kinase (Rattus norvegicus (Rat)), P47196 (parent)
chain: MNDVAIVKEGWLHKRGEYIKTWRPRYFLLKNDGTFIGYKERPQDVEQRESPLNNFSVAQCQLMKTERPRPNTFIIRCLQWTTVIERTFHVETPEEREEWTTAIQTVADGLKRQEEETMDFRSGSPSDNSGAEEMEVALAKPKHRVTMNEFEYLKLLGKGTFGKVILVKEKATGRYYAMKILKKEVIVAKDEVAHTLTENRVLQNSRHPFLTALKYSFQTHDRLCFVMEYANGGELFFHLSRERVFSEDRARFYGAEIVSALDYLHSEKNVVYRDLKLENLMLDKDGHIKITDFGLCKEGIKDGATMKTFCGTPEYLAPEVLEDNDYGRAVDWWGLGVVMYEMMCGRLPFYNQDHEKLFELILMEEIRFPRTLGPEAKSLLSGLLKKDPTQRLGGGSEDAKEIMQHRFFANIVWQDVYEKKLSPPFKPQVTSETDTRYFDEEFTAQMITITPPDQDDSMECVDSERRPHFPQFSYSASGTA

Variants of: B1
Settings: with nfkb1_rat Nfkb1, Q63369
nfkb1_rat Nfkb1, Q63369, sequence (Q63369 whole entry): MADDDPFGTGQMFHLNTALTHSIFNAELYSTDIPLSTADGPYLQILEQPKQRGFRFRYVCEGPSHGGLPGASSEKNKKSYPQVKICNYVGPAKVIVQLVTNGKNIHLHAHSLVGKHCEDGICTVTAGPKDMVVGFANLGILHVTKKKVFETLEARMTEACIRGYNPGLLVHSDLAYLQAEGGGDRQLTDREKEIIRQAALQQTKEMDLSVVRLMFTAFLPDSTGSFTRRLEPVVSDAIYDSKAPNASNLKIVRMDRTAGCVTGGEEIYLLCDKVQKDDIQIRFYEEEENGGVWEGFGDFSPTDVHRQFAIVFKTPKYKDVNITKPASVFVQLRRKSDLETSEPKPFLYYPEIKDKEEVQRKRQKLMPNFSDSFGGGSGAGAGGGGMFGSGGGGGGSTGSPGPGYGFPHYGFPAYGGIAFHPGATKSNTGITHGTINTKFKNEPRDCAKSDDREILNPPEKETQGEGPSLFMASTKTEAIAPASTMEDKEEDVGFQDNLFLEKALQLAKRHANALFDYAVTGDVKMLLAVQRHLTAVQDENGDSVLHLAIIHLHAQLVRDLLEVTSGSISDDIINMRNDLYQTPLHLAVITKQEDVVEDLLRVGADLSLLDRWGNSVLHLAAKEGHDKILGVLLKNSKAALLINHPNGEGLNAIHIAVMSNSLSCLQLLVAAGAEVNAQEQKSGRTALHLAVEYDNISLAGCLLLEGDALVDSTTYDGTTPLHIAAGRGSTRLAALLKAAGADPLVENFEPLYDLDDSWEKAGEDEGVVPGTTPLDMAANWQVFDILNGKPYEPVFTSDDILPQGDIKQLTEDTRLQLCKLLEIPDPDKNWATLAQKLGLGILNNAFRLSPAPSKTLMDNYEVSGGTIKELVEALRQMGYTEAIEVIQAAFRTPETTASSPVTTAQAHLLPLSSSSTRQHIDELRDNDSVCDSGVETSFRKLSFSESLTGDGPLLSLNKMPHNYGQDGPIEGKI
For MNDVAIVKEGWLHKRGEYIKTWRPRYFLLKNDGTFIGYKERPQDVEQRESPLNNFSVAQCQLMKTERPRPNTFIIRCLQWTTVIERTFHVETPEEREEWTTAIQTVADGLKRQEEETMDFRSGSPSDNSGAEEMEVALAKPKHRVTMNEFEYLKLLGKGTFGKVILVKEKATGRYYAMKILKKEVIVAKDEVAHTLTENRVLQNSRHPFLTALKYSFQTHDRLCFVMEYANGGELFFHLSRERVFSEDRARFYGAEIVSALDYLHSEKNVVYRDLKLENLMLDKDGHIKITDFGLCKEGIKDGATMKTFCGTPEYLAPEVLEDNDYGRAVDWWGLGVVMYEMMCGRLPFYNQDHEKLFELILMEEIRFPRTLGPEAKSLLSGLLKKDPTQRLGGGSEDAKEIMQHRFFANIVWQDVYEKKLSPPFKPQVTSETDTRYFDEEFTAQMITITPPDQDDSMECVDSERRPHFPQFDYSASGTA [S473D], the “effect of a mutation on the interaction” value was “increasing interaction”. With MNDVAIVKEGWLHKRGEYIKTWRPRYFLLKNDGTFIGYKERPQDVEQRESPLNNFSVAQCQLMKTERPRPNTFIIRCLQWTTVIERTFHVETPEEREEWTTAIQTVADGLKRQEEETMDFRSGSPSDNSGAEEMEVALAKPKHRVTMNEFEYLKLLGKGTFGKVILVKEKATGRYYAMAILKKEVIVAKDEVAHTLTENRVLQNSRHPFLTALKYSFQTHDRLCFVMEYANGGELFFHLSRERVFSEDRARFYGAEIVSALDYLHSEKNVVYRDLKLENLMLDKDGHIKITDFGLCKEGIKDGATMKTFCGTPEYLAPEVLEDNDYGRAVDWWGLGVVMYEMMCGRLPFYNQDHEKLFELILMEEIRFPRTLGPEAKSLLSGLLKKDPTQRLGGGSEDAKEIMQHRFFANIVWQDVYEKKLSPPFKPQVTSETDTRYFDEEFTAQMITITPPDQDDSMECVDSERRPHFPQFSYSASGTA [K179A] the “effect of a mutation on the interaction” value was “increasing interaction”. With MNDVAIVKEGWLHKRGEYIKTWRPRYFLLKNDGTFIGYKERPQDVEQRESPLNNFSVAQCQLMKTERPRPNTFIIRCLQWTTVIERTFHVETPEEREEWTTAIQTVADGLKRQEEETMDFRSGSPSDNSGAEEMEVALAKPKHRVTMNEFEYLKLLGKGTFGKVILVKEKATGRYYAMKILKKEVIVAKDEVAHTLTENRVLQNSRHPFLTALKYSFQTHDRLCFVMEYANGGELFFHLSRERVFSEDRARFYGAEIVSALDYLHSEKNVVYRDLKLENLMLDKDGHIKITDFGLCKEGIKDGATMKDFCGTPEYLAPEVLEDNDYGRAVDWWGLGVVMYEMMCGRLPFYNQDHEKLFELILMEEIRFPRTLGPEAKSLLSGLLKKDPTQRLGGGSEDAKEIMQHRFFANIVWQDVYEKKLSPPFKPQVTSETDTRYFDEEFTAQMITITPPDQDDSMECVDSERRPHFPQFSYSASGTA [T308D] the “effect of a mutation on the interaction” value was “increasing interaction”.
